Assay results published in PMC5487423 (2017).

Legend:
Assay in all cases: BLI
[1] = target: CCL24_MOUSE
[2] = target: CCL23_HUMAN
[3] = target: CCL12_MOUSE
[4] = target: CCL15_HUMAN
[5] = target: CCL19_MOUSE
[6] = target: CCL9_MOUSE
[7] = target: CCL27_HUMAN
[8] = target: CCL6_MOUSE
[9] = target: CCL8_MOUSE
[10] = target: CCL27_MOUSE
[11] = target: T1, CCL24_HUMAN (Homo sapiens)
T1 chain: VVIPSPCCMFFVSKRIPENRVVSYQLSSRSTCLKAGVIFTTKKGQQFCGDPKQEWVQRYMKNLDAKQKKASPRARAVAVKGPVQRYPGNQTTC

[12] = target: T2, CCL22_MOUSE (Mus musculus)
T2 chain: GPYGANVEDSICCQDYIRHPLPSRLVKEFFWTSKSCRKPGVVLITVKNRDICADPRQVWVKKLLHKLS

[13] = target: T3, CCL18_HUMAN (Homo sapiens)
T3 chain: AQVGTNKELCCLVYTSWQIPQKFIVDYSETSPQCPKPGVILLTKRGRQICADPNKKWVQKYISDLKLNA

[14] = target: T4, CCL19_HUMAN (Homo sapiens)
T4 chain: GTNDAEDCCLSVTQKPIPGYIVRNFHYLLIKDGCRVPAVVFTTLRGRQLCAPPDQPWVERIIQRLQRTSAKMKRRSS

[15] = target: T5, CCL22_HUMAN (Homo sapiens)
T5 chain: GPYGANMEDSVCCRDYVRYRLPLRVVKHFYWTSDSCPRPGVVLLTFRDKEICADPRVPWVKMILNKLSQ

[16] = target: CCL2_MOUSE (Mus musculus)
[17] = target: CCL7 (human, UniProt P80098 24-99)
[18] = target: T6, CCL8 (human, UniProt P80075 24-99)
T6 chain: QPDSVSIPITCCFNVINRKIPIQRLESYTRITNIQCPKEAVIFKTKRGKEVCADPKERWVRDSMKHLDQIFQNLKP

[19] = target: T7, CCL4_HUMAN (Homo sapiens)
T7 chain: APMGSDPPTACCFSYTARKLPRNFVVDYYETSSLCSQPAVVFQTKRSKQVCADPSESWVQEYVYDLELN

[20] = target: CCL5_MOUSE (Mus musculus)
[21] = target: T8, CCL3_MOUSE (Mus musculus)
T8 chain: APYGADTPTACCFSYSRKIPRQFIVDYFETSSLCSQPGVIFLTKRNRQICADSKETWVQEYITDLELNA

[22] = target: T9, CCL3 (human, UniProt P10147 24-92)
T9 chain: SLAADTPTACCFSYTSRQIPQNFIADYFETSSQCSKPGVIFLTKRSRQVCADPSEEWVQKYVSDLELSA

[23] = target: T10, CCL4L1_HUMAN (Homo sapiens)
T10 chain: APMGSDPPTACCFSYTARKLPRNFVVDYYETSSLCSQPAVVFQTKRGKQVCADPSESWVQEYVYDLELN

[24] = target: T11, CCL11_MOUSE (Mus musculus)
T11 chain: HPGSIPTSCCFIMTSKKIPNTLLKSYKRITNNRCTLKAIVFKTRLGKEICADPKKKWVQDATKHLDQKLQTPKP

[25] = target: CCL13_HUMAN (Homo sapiens)
CCL13_HUMAN (Homo sapiens), sequence (chain, as listed by the source): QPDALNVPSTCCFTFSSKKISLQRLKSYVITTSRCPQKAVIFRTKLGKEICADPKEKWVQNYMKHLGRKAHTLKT

CCL2_MOUSE (Mus musculus), sequence (chain, as listed by the source): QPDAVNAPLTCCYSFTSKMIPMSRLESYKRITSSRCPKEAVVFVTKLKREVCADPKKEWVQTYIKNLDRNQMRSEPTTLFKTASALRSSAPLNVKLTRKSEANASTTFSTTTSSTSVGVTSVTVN
CCL5_MOUSE (Mus musculus), sequence (P30882 24-91): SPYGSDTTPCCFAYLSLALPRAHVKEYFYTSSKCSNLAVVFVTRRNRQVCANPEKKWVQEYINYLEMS
CCL7, sequence (P80098 24-99): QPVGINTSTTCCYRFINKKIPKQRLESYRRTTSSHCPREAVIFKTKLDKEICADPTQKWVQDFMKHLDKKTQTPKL

B1: P991_AMBCA, purified, C-terminal StrepII-8xHis tag (natural protein)
chain: ETGENGEGTTQPDYDNSTDYYNYEDFKCTCPAPHLNNTNGTVMKPIGCYYTCNVTRCTAPDTYPCYNLTEHQAKNLTTSPTTLCAVGNCDHGICVPNGTKELCFKAPNLEE
Q: Which results are given for B1?
A: Kd [1]: 3.16 nM; Kd [2]: 5.58 nM; Kd [3]: 7.47 nM; Kd [4]: 159 nM; Kd [5]: 4.81 nM; Kd [6]: 13.3 nM; Kd [7]: 38.9 nM; Kd [8]: 1.52 nM; Kd [9]: 4.83 nM; Kd [10]: 58 nM; Kd [11]: 6.54 nM; Kd [12]: 8.59 nM; Kd [13]: 0.209 nM; Kd [14]: 14.4 nM; Kd [15]: 3.97 nM; Kd [16]: 24.3 nM; Kd [17]: 0.514 nM; Kd [18]: 8.79 nM; Kd [19]: 5.82 nM; Kd [20]: 2.12 nM; Kd [21]: 2.48 nM; Kd [22]: 1.08 nM; Kd [23]: 0.827 nM; Kd [24]: 1.11 nM; Kd [25]: 0.419 nM
